Measured values: patent US9526786B2, “Thermostabilization of proteins” (The Trustee of Columbia University in the City of New York, priority 2007, dated 2016)

Legend:
[1] = system: cocaine-induced lethality; experiment: In vivo potency of protection against cocaine-induced lethality; parameters: species or system NIH-Swiss mice; settings: i.v. pretreatment 1 min prior to i.p. cocaine
[2] = system: cocaine-induced lethality; experiment: In vivo duration of protection against cocaine-induced lethality; parameters: species or system NIH-Swiss mice; settings: 1 mg i.v.; cocaine 180 mg/kg i.p.
Experimental: In vivo protection against cocaine lethality. Male NIH-Swiss mice (25-32 g) were obtained from Harlan Inc. (Indianapolis, Ind.) and were housed in groups of 6 mice per cage. All mice were allowed ad libitum access to food and water, and were maintained on a 12-h light-dark cycle with lights on at 06.30 AM in a room kept at a temperature of 21-22° C. Experiments were performed in accordance with the Guide for the Care and Use of Laboratory Animals as adopted and promulgated by the National Institutes of Health. The experimental protocols were approved by the University Committee on the Use and Care of Animals at the University of Michigan.
Cocaine-induced toxicity was characterized by the occurrence of lethality, as defined by the cessation of observed movement and respiration. Mice were placed individually in Plexiglas observation chambers (16×28×20 cm high) to be habituated for 15 min before drug administration. Following intra-peritoneal (i.p.) cocaine administration, the mouse was immediately placed individually in the same chamber for observation. The presence or absence of lethality was recorded for 60 min following cocaine administration. The mouse was placed in a small restraint chamber (Outer tube diameter: 30 mm; Inner tube diameter: 24 mm) that left the tail exposed. The tail was cleansed with an alcohol wipe and a 30G1/2 precision glide needle (Fisher Scientific, Pittsburgh, Pa.) was inserted into one of the side veins for infusion. The i.v. injection volume of CocE or CocE mutant was 0.2 mL per mouse. Sterile gauze and pressure were applied to the injection site to staunch the bleeding.
Lethality was monitored following injection at 1, 5, 10, or 30 min, or 1, 2, 3, 4, 5 hours after enzyme administration. Each treatment used 8 mice to assess the percent of lethality (i.e., protection) in mice pretreated with a single dose of an esterase at a single time point.
These values were used to compare the degree of rightward shifts of cocaine's dose-response curve in the absence or presence of the enzyme pretreatment. In the time course study, a time point for duration of protection (i.e., 50% of lethality) was estimated by using each time course curve crossing 50% occurrence of lethality.
Evaluation of in vivo half life. CocE is administered IV to the tail vein in a volume of 0.2 ml. Animals are challenged with 180 mg/kg cocaine delivered intraperitoneally at a given time after CocE administration.

[3] = Michaelis-Menten kinetics of cocaine hydrolysis (absorbance at 240 nm); assay type: biochemical; settings: cocaine
Experimental: (§1) The initial rates (of decay) were determined by following the change in the intrinsic absorbance of cocaine at 240 nm (6700 M^1 cm^1)(Xie et al., 1999) using a SpectraMax Plus 384 UV plate reader (Molecular Devices, Sunnyvale, Calif.) using SOFTmax Pro software (Version 3.1.2). The reaction was initiated by adding 100 μL of a 2× enzyme solution (100 mM phosphate buffer, pH 7.4 and 300 mM NaCl) to 100 μL of a 2× cocaine solution (50 μg/mL enzyme, 100 mM Phosphate Buffer, pH 7.4 and 300 mM NaCl). All assays were performed with 100 μM DTT unless indicated otherwise. Final cocaine concentrations were as follows: 125, 62.5, 31.25, 15.63, 7.81, 3.91, 1.95, and 0.977 μM. Vmax and Km values were calculated using Prism (GraphPad Software, San Diego). For stability measurements, wild type and mutant enzymes were diluted to 2× concentration and incubated at 37° C. for the times indicated. At the end of each time point, an aliquot was removed and kinetic behavior was observed as outlined above.
(§2) In vitro kinetic assays. […] Initial rates were then used to determine Michaelis-Menten parameters. To assess thermal stability, enzyme preparations were preincubated at 37° C. for various lengths of time, prior to measurement of residual activities (Table 1 and FIG. 23).
Determination of Catalytic Efficiency. To determine the catalytic activity a spectrophometric assay was performed. Samples of L169K/G173Q CocE were added to a 96-well UV permeable plate containing increasing cocaine concentrations (0.5, 2.5, 5, 12.5, 25, 50, 100, and 150 μM) to give a final concentration of 10 ng/ml CocE in a final volume of 200 μl. The change in absorbance at 240 nm was measured over 20 minutes, with readings every 10 seconds, by a SpectraMax Plus 384 UV plate reader (Molecular Devices, Sunnyvale, Calif.) using SOFTmax Pro software (Version 3.1.2). The change in absorbance was converted to the change in concentration and furthermore the rate of decay per mole enzyme is determined (Kcat). Kcat and Km of the enzyme are determined using Prism (GraphPad software, San Diego).

[4] = mouse, in vivo; cited from earlier work
[5] = Circular dichroism melting temperature of CocE proteins alone; assay type: physicochemical; settings: circular dichroism, enzyme alone
Experimental: Further characterization of the stability of wild type (WT) CocE and thermostable mutants was performed through circular dichroism, which detects small changes in protein conformation and structure. Analysis by repeated CD measurements at increasing temperatures allows analysis of the thermodynamics and melting temperature (TM) of the protein, so long as the melting is reversible (i.e. the protein resumes it's original conformation upon cooling). […] However CD is still of value in determining the temperature to unfolding.

[6] = Temperature-dependent decay in esterase activity (30 min pre-incubation); assay type: biochemical
Experimental: FIG. 26 is a graph showing temperature-dependent decay in esterase activity. 50 ng/ml wild-type CocE and the mutants were pre-incubated for 30 min at temperatures indicated (° C.) and activity measured (Xie et al., 1999). The activity of each mutant remaining (as a percentage of the maximal activity, Vmax, without preincubation) following pre-incubation are illustrated. Wild-type CocE (open bars) appears to inactivate between 30-35° C. whereas T172R/G173Q (shaded bars) and L169K (solid) both display enhance thermal stability (inactivation at 40-45° C.).
To test whether the improved enzymatic stability at 37° C. represents improved thermal stability of the protein fold, the capacity of the CocE at progressively higher temperatures were assessed (FIG. 26). The activity of wt CocE plummets precipitously after 30 min at approximately 30-35° C. Both L169K and T172R/G173Q each are inactivated at a higher temperature (40-45° C.). Circular dichroism analysis (near UV analysis) at varying temperatures, comparing wt-CocE and T172R/G173Q have melting temperatures in concordance with the loss of catalytic activity.

[7] = 37° C., absence of DTT
Experimental: Analysis of CocE action on cocaine cleavage is performed by utilizing the spectroscopic properties of cocaine, which maximally absorbs light at a 240 nm wavelength. CocE activity is measured by monitoring for a decrease in signal at A240, using various concentrations of cocaine, and determining the initial rate of the decrease. From these values the Vmax of the enzyme can be determined. By pre-incubating the enzyme at 37° C. for various times before monitoring for activity, the half life of CocE at 37° C. can be calculated.
as §1, with “Final cocaine concentrations were as follows: 125, 62.5, 31.25, 15.63, 7.81, 3.91, 1.95, and 0.977 μM. Vmax and Km values were calculated using Prism (GraphPad Software, San Diego).” left out
as §2

B1: wt-CocE: cocaine esterase of Rhodococcus sp. MB 1, SEQ ID NO:1 (protein, listed as Rhodococcus sp.)
chain: MVDGNYSVASNVMVPMRDGVRLAVDLYRPDADGPVPVLLVRNPYDKFDVFAWSTQSTNWLEFVRDGYAVVIQDTRGLFASEGEFVPHVDDEADAEDTLSWILEQAWCDGNVGMFGVSYLGVTQWQAAVSGVGGLKAIAPSMASADLYRAPWYGPGGALSVEALLGWSALIGTGLITSRSDARPEDAADFVQLAAILNDVAGAASVTPLAEQPLLGRLIPWVIDQVVDHPDNDESWQSISLFERLGGLATPALITAGWYDGFVGESLRTFVAVKDNADARLVVGPWSHSNLTGRNADRKFGIAATYPIQEATTMHKAFFDRHLRGETDALAGVPKVRLFVMGIDEWRDETDWPLPDTAYTPFYLGGSGAANTSTGGGTLSTSISGTESADTYLYDPADPVPSLGGTLLFHNGDNGPADQRPIHDRDDVLCYSTEVLTDPVEVTGTVSARLFVSSSAVDTDFTAKLVDVFPDGRAIALCDGIVRMRYRETLVNPTLIEAGEIYEVAIDMLATSNVFLPGHRIMVQVSSSNFPKYDRNSNTGGVIAREQLEEMCTAVNRIHRGPEHPSHIVLPIIKR
protection against cocaine-induced lethality [1]: protected
LT50, pretreatment time to 50% lethality [2]: approximately 14 min
Kcat(mol · s^−1 · mol^−1) [3]: 2323 mol · s^−1 · mol^−1
effective half-life in the blood stream [4]: ~10 min
melting temperature [5]: approximately 39 °C
temperature of inactivation [6]: 30-35 °C
half-time of inactivation, τinact [7]: approximately 25 min
